Laboratory results published in patent US20250108100A1, “C-TERMINAL FRAGMENT OF APOLIPOPROTEIN E AND APPLICATION THEREOF IN INHIBITING y-SECRETASE ACTIVITY” (SYNPHATEC (SHANGHAI) BIOPHARMACEUTICAL TECHNOLOGY CO., LTD., priority 2022, published 2025).
Where a chain is given by its changes, count along the chain named. Numbers in names are those of the source. Entries after “also recorded” stand apart in the source; their conditions may differ.

B1: ApoE2 MD10: SEQ ID NO: 61; ApoE2 with amino acid residues at positions 244 to 254 deleted (protein)
chain: KVEQAVETEPEPELRQQTEWQSGQRWELALGRFWDYLRWVQTLSEQVQEELLSSQVTQELRALMDETMKELKAYKSELEEQLTPVAEETRARLSKELQAAQARLGADMEDVCGRLVQYRGEVQAMLGQSTEELRVRLASHLRKLRKRLLRDADDLQKCLAVYQAGAREGAERGLSAIRERLGPLVEQGRVRAATVGSLAGQPLQERAQAWGERLRARMEEMGSRTRDRLDEVKEQVAEVRAKLEAFQARLKSWFEPLVEDMQRQWAGLVEKVQAAVGTSAAPVPSDNH
B2: CT E20: SEQ ID NO: 55; multiple site mutant of ApoE CT (protein)
chain: ARMEEMGSRTRDRLDEVKEAVAEVRAKLEEQAQQIRLQAAAFQARLKSWFEPLVEDMQRAWAGLVEKVQAAVGTSAAPVASDNH
B3: monkey CT: SEQ ID NO: 62; non-human primate-derived ApoE CT, R36S+T74A+A76T versus human ApoE CT (protein)
chain: B2 chain with A20Q, R36S, A40E, A60Q, T74A, A76T, A80P
B4: CT E10: SEQ ID NO: 54; multiple site mutant of ApoE CT (protein)
chain: B2 chain with T10A, E30A, F50A
B5: CT LF5: SEQ ID NO: 58; ApoE CT mutant R11A + D12A + R13A + L14A + D15A (protein)
chain: B2 chain with R11A, D12A, R13A, L14A, D15A, A20Q, A40E, A60Q, A80P
B6: CT A60: SEQ ID NO: 48; ApoE CT mutant Q60A (Q275A of SEQ ID NO: 12) (protein)
chain: B2 chain with A20Q, A40E, A80P
B7: CT LM5: SEQ ID NO: 59; ApoE CT mutant E23A + V24A + R25A + K27A (protein)
chain: B2 chain with A20Q, E23A, V24A, R25A, K27A, A40E, A60Q, A80P
B8: CT A80: SEQ ID NO: 51; ApoE CT mutant P80A (P295A of SEQ ID NO: 12) (protein)
chain: B2 chain with A20Q, A40E, A60Q
B9: CT E5: SEQ ID NO: 53; multiple site mutant of ApoE CT (protein)
chain: B2 chain with T10A, D15A, R25A, E30A, I35A, R45A, F50A, E55A, V65A, S75A
B10: CT A40: SEQ ID NO: 47; ApoE CT mutant E40A (E255A of SEQ ID NO: 12); table prints CT A20 (protein)
chain: B2 chain with A20Q, A60Q, A80P
B11: CT R10: SEQ ID NO: 57; ApoE CT mutant S75A + P78A + V79A + P80A + S81A + D82A + N83A + H84A (protein)
chain: B2 chain with A20Q, A40E, A60Q, S75A, P78A, V79A, S81A, D82A, N83A, H84A
B12: CT F5: SEQ ID NO: 56; multiple site mutant of ApoE CT (protein)
chain: B2 chain with R2A, M3A, E4A, E5A, A20Q, A40E, A60Q, A80P
B13: CT A36/74: SEQ ID NO: 52; ApoE CT mutant R36A + T74A (R251A + T289A of SEQ ID NO: 12) (protein)
chain: B2 chain with A20Q, R36A, A40E, A60Q, T74A, A80P
B14: CT A65: SEQ ID NO: 49; ApoE CT mutant V65A (V280A of SEQ ID NO: 12) (protein)
chain: B2 chain with A20Q, A40E, A60Q, V65A, A80P
B15: CT A72: SEQ ID NO: 50; ApoE CT mutant V72A (V287A of SEQ ID NO: 12) (protein)
chain: B2 chain with A20Q, A40E, A60Q, V72A, A80P
B16: CT A20: SEQ ID NO: 46; ApoE CT mutant Q20A (Q235A of SEQ ID NO: 12) (protein)
chain: B2 chain with A40E, A60Q, A80P
B17: ApoE2-M3F: SEQ ID NO: 60; ApoE2 with 3×FLAG added between residues 215 and 216 (protein)
chain: KVEQAVETEPEPELRQQTEWQSGQRWELALGRFWDYLRWVQTLSEQVQEELLSSQVTQELRALMDETMKELKAYKSELEEQLTPVAEETRARLSKELQAAQARLGADMEDVCGRLVQYRGEVQAMLGQSTEELRVRLASHLRKLRKRLLRDADDLQKCLAVYQAGAREGAERGLSAIRERLGPLVEQGRVRAATVGSLAGQPLQERAQAWGERLRGSGGSDYKDHDGDYKDHDIDYKDDDDKSGSGSARMEEMGSRTRDRLDEVKEQVAEVRAKLEEQAQQIRLQAEAFQARLKSWFEPLVEDMQRQWAGLVEKVQAAVGTSAAPVPSDNH
modifications: 3xFLAG inserted between residues 215 and 216

System: human APP co-expressed in HEK 293T cells
Assay: α-CTF produced by APP co-expressed in HEK 293T cells (Western blot)
Format: cell-based
Details: for α-CTF produced by co-expressed APP: Western blot, vs GFP control; for degree of α-CTF increase compared to ApoE CT: ApoE CT positive control
Method: • a) A plasmid expressing the target protein in mammalian cells was constructed, and the protein expression promoter is CAG. • b) The target protein was expressed in HEK 293T cell line. Cells were subcultured one day before transfection, and transfection was performed when the degree of cell adhesion reached 70%-80%. The transfection reagent was lipofectamine2000 (ThermoFisher). • c) 4-6 hours post transfection, the medium were replaced with fresh cell culture medium. • d) 36-48 hours post transfection, the cells were lysed (10% 1M tris-HCl (pH=6.8), 4% SDS, 20% glycerol, 0.01% bromophenol blue), and the protein samples were collected and used for Western blot or stored in a −80° C. freezer. • e) Polyacrylamide gel electrophoresis. Before protein loading, the protein was boiled at 98° C. for 10 min, and then centrifuged at 12000 rpm for 10 min. Electrophoresis: 80V for the upper stacking gel; 120V for the lower separating gel. • f) Protein transfer. The filter paper was soaked in the electrophoresis solution before use, and the PVDF membrane was put in methanol for 10s to activate, and the gel after electrophoresis was taken out from the electrophoresis tank, put in the order of filter paper—PVD membrane—gel-filter paper from bottom to top, and they were put into the transfer instrument, with transferring in constant current at 0.1 A for 70 min. • g) Blocking and antibody incubation: the transferred PVDF membrane was placed in 5% BSA/TBST blocking solution, and blocked on a shaker at room temperature for 1 hour. The primary antibody was used to incubate at 4° C. overnight on a shaker (12-16 h); 1×TBST was used to wash three times, once every 10 minutes; the secondary antibody was used to incubate, shaked at room temperature for 1-2 h; 1×TBST was used to wash three times, once every 10 minutes. • h) Imaging by development: development was performed with ECL chemiluminescence hypersensitive chromogenic reagent.
Plasmids were transfected in HEK 293T or N2A cells for 36-48 hours and then lysed in cell lysis buffer [10% 1M tris-HCl (pH=6.8), 4% SDS, 20% glycerol, 0.01% bromophenol blue]. Lysates were shaken at room temperature for 10 min, then boiled for 10 min, and centrifuged at 12,000×g for 10 min. Proteins were run on 8% or 12% Tris-glycine SDS-PAGE and transferred to PVDF membranes (Life Technologies). Samples were incubated overnight at 4° C. with primary antibody diluted in 5% BSA buffer (in 1×TBST). After washing 3 times with 1×TBST, they were incubated with secondary antibody diluted in 5% BSA buffer (in 1×TBST) for 2 hours at room temperature. Finally, after washing 3 times with 1×TBST, the signal was detected by ECL Western blotting substrate (Solarbio, PE0010).
Data were analyzed by GraphPad Prism software (v6) using unpaired, paired, or one-sample t-tests. Aβ40 and Aβ42 levels were normalized to the corresponding GFP controls. α-CTF levels were normalized to FL-APP and corresponding GFP controls. All data are represented as mean±SEM. Statistical significance was defined as p<0.05. One, two, three and four stars (*) in the graph indicate p-values <0.05, <0.01, <0.001 and <0.0001, respectively.

| Molecule | α-CTF produced by co-expressed APP | degree of α-CTF increase compared to ApoE CT | α-CTF produced by co-expressed APP (listed as ApoE CT from a non-human primate) |
| --- | --- | --- | --- |
| B1 | significantly increases α-CTF; also recorded: also increased α-CTF | – | – |
| B2 | can no longer increase α-CTF; also recorded: failed to increase | – | – |
| B3 | also increase α-CTF | identical to that of human ApoE CT | significantly increased α-CTF |
| B4 | can no longer increase α-CTF; also recorded: failed to increase | – | – |
| B5 | still significantly increase α-CTF; also recorded: can also significantly increase α-CTF | – | – |
| B6 | significantly increased α-CTF | – | – |
| B7 | still significantly increase α-CTF; also recorded: can also significantly increase α-CTF | – | – |
| B8 | significantly increased α-CTF | even higher | – |
| B9 | can no longer increase α-CTF; also recorded: failed to increase | – | – |
| B10 | significantly increased α-CTF | – | – |
| B11 | still significantly increase α-CTF; also recorded: can also significantly increase α-CTF | – | – |
| B12 | can no longer increase α-CTF; also recorded: failed to increase | – | – |
| B13 | significantly increased α-CTF | even higher | – |
| B14 | significantly increased α-CTF | – | – |
| B15 | significantly increased α-CTF | even higher | – |
| B16 | significantly increased α-CTF | – | – |
| B17 | significantly increases α-CTF; also recorded: increased α-CTF | – | – |
